From paper PMC2921000 (Nature, 2010)

Molecular target: T1, Spc98p (Saccharomyces cerevisiae, UniProt P53540 1-846)
T1 sequence: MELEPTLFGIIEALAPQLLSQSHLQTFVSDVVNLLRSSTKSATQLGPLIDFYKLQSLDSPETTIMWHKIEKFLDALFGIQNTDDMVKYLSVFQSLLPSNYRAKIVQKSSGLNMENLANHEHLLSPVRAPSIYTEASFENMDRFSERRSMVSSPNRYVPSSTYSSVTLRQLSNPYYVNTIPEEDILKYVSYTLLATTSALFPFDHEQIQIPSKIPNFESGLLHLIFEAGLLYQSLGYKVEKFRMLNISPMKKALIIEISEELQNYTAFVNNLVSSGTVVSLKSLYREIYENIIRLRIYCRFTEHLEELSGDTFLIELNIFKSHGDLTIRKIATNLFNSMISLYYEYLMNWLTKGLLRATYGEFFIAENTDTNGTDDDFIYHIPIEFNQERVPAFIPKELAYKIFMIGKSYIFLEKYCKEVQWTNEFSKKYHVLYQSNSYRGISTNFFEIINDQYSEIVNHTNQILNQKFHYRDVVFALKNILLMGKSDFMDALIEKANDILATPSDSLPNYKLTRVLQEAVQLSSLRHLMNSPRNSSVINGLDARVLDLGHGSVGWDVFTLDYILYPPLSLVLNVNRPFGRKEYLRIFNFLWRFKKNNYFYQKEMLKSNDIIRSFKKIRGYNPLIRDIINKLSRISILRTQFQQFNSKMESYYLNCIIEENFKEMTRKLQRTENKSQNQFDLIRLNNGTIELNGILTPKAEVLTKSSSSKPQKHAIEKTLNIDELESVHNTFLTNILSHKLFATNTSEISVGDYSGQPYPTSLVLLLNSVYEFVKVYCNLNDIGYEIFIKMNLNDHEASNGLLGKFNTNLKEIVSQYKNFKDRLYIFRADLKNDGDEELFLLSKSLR
Test: cryo-EM structure

B1: Spc97p (natural protein)
chain: MEIKEVDDRAELLRYTNNIPLLGKLVNHQPLWSTNPKLKSFSLEKISAPDQRRVQEALVVKDLLNVLIGLEGTYIRYFNDYEPSDPETPIEFKIAKKMDPSFKTFSRRIVRYGKQYMILTRAYEKWSDTSFGMVLQRFAYEIRRFLEDVYLKTLVERLERDFNKVPNFSIRELEQIINETEVNKQMELLYNIYEEIFREIEERRTNQSSQEDFNNFMDSMKNESSLHLRLMVAFDTTVYPVPKGGAILKIFQQKILENLGDRSSVMFLKKLLNNISQDYCTMLYEWLTQGILNDPYQEFMTYDDLEGKTDNIFDTRDRAWDTQYFIRKDVLLRDCDSEEDKNLLFKMLRTGILLKVVRASLQIPTIPSNSSDITIQEINDFADLMEGSNLELYVDKCYSRANEIFLKLFFQGYDLINVLKHLQQIFLGYQSGHNVLKFLTKNMGELTKHYRNDNNANYDKLLQNFELERQSENPNNLMRQLLMIQFDTETLPQVLSHYLQIYPEVPENNSANDDSDPLMHANNFKNMNAILFDELSKERTGAYHGSNLELYTPKSAIYHLKFDINIPYPLNIIISRTCMIKYQIILRYQLVLQYHSRLLDETWMDLNKTPSWKYRGYSHTVKRRIVRATRVLHAKMNHFIKTIMEYFNQNVIDKEVYSLEKCYRNPTLAVAIQNELEGGLTNIMTNRCLSDLIPLQLQIFDIVYKFCKFIKSMRAKLCQLDPVLYEKHKSGMMKTLNEGYRTNNGGQEDVGYQEDAALELIQKLIEYISNASSIFRKCLINFTQELSTEKFDFYDSSSVDAAGIERVLYSIVPPRSASASSQR
binding result: binds
